# US20020076795A1, “Novel TRF1 binding protein, methods of use thereof” (published 2002)
# T1: GAD-tankyrase hybrid containing 10 internal ANK repeats (9-19) (TR1L-12) (human, UniProt O95271 436-797)
# T1 construct: the construct holds only ANK repeats 9-19; also called 10-ANK repeat domain of tankyrase
# T1 sequence: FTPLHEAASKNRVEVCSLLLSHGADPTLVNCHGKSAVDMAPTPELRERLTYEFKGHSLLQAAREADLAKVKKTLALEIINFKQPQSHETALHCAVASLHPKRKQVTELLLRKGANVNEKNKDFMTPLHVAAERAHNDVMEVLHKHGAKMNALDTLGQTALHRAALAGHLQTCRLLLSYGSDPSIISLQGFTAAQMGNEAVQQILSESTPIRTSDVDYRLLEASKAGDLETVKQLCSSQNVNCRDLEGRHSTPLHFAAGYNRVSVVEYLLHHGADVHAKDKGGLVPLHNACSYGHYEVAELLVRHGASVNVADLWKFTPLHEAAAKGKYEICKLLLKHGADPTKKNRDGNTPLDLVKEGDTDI
# T2: TRF2 (telomeric repeat binding factor 2), Q15554
# T2 chain: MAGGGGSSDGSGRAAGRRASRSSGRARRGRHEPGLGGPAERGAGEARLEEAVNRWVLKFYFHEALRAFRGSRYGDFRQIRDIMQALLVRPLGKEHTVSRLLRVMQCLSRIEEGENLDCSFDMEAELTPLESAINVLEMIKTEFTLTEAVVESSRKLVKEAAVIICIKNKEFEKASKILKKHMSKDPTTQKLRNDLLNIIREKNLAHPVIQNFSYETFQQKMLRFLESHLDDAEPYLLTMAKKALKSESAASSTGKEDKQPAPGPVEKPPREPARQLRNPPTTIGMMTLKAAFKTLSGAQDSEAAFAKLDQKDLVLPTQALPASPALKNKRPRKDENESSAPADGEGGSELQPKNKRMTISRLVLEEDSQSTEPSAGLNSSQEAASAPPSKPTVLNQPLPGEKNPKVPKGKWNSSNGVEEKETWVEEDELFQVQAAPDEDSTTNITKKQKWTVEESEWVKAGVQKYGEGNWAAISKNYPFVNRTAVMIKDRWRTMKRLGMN
# T3: baculovirus-derived TRF1, P54274
# T3 chain: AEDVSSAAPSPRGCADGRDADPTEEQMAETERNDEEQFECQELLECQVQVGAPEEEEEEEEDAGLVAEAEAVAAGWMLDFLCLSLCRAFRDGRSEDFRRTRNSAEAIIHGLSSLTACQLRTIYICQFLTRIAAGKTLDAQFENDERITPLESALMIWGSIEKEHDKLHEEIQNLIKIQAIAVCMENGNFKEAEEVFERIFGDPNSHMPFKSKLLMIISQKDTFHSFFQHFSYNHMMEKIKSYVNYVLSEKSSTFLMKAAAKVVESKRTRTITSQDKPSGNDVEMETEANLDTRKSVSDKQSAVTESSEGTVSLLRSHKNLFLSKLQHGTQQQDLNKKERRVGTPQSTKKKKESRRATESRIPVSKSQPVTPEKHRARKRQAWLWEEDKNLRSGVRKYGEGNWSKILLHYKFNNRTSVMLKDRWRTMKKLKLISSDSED
# T4: FLAG-tankyrase (encoding amino acids 2-1327 of SEQ ID NO:2) (human, UniProt O95271 2-1327)
# T4 construct: Expressed by transient transfection in HeLaI cells; also called exogenous tankyrase; transfected tankyrase
# T4 sequence: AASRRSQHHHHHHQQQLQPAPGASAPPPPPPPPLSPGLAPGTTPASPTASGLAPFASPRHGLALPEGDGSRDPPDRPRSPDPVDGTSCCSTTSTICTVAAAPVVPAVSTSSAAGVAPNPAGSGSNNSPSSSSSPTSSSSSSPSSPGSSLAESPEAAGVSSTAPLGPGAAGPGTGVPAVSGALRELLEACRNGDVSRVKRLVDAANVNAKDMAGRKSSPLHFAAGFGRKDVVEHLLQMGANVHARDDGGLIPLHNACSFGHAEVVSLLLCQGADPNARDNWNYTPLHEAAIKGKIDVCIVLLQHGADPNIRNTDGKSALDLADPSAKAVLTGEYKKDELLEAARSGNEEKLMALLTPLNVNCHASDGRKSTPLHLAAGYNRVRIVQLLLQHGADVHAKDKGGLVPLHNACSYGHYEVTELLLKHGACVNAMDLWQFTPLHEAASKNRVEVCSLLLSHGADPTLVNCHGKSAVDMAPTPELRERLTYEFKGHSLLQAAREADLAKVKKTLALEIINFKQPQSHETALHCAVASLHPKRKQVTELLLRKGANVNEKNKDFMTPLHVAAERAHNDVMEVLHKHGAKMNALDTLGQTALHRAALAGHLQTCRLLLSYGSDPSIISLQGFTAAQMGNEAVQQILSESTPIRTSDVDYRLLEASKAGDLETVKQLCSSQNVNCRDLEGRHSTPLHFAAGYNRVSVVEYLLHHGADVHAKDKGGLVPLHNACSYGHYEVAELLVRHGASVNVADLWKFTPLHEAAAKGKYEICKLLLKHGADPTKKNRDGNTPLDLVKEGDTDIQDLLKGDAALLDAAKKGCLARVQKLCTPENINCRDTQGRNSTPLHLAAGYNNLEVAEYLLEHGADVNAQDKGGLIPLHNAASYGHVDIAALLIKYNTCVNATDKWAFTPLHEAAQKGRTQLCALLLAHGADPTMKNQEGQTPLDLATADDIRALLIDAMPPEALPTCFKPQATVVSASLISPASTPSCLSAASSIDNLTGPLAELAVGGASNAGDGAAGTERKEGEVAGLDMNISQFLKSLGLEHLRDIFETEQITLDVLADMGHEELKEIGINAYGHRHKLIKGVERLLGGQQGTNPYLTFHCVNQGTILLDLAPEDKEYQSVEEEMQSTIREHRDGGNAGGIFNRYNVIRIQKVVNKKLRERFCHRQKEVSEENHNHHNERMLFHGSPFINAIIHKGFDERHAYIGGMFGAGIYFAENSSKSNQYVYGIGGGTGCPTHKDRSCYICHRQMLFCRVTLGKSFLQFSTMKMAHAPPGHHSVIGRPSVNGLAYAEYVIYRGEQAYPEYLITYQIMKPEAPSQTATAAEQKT
# B1: LexA (alone) (other, UniProt P0A7C2 1-202, looked up)
# chain: MKALTARQQEVFDLIRDHISQTGMPPTRAEIAQRLGFRSPNAAEEHLKALARKGVIEIVSGASRGIRLLQEEEEGLPLVGRVAAGEPLLAQQHIEGHYQVDPSLFKPNADFLLRVSGMSMKDIGIMDGDLLAVHKTQDVRNGQVVVARIDDEVTVKRLKKQGNKVELLPENSEFKPIVVDLRQQSFTIEGLAVGVIRNGDWL
# notes: Control
# B2: baculovirus-derived N-terminally [His]6-tagged fusion protein of human tankyrase (protein)
# chain: MAASRRSQHHHHHHQQQLQPAPGASAPPPPPPPPLSPGLAPGTTPASPTASGLAPFASPRHGLALPEGDGSRDPPDRPRSPDPVDGTSCCSTTSTICTVAAAPVVPAVSTSSAAGVAPNPAGSGSNNSPSSSSSPTSSSSSSPSSPGSSLAESPEAAGVSSTAPLGPGAAGPGTGVPAVSGALRELLEACRNGDVSRVKRLVDAANVNAKDMAGRKSSPLHFAAGFGRKDVVEHLLQMGANVHARDDGGLIPLHNACSFGHAEVVSLLLCQGADPNARDNWNYTPLHEAAIKGKIDVCIVLLQHGADPNIRNTDGKSALDLADPSAKAVLTGEYKKDELLEAARSGNEEKLMALLTPLNVNCHASDGRKSTPLHLAAGYNRVRIVQLLLQHGADVHAKDKGGLVPLHNACSYGHYEVTELLLKHGACVNAMDLWQFTPLHEAASKNRVEVCSLLLSHGADPTLVNCHGKSAVDMAPTPELRERLTYEFKGHSLLQAAREADLAKVKKTLALEIINFKQPQSHETALHCAVASLHPKRKQVTELLLRKGANVNEKNKDFMTPLHVAAERAHNDVMEVLHKHGAKMNALDTLGQTALHRAALAGHLQTCRLLLSYGSDPSIISLQGFTAAQMGNEAVQQILSESTPIRTSDVDYRLLEASKAGDLETVKQLCSSQNVNCRDLEGRHSTPLHFAAGYNRVSVVEYLLHHGADVHAKDKGGLVPLHNACSYGHYEVAELLVRHGASVNVADLWKFTPLHEAAAKGKYEICKLLLKHGADPTKKNRDGNTPLDLVKEGDTDIQDLLKGDAALLDAAKKGCLARVQKLCTPENINCRDTQGRNSTPLHLAAGYNNLEVAEYLLEHGADVNAQDKGGLIPLHNAASYGHVDIAALLIKYNTCVNATDKWAFTPLHEAAQKGRTQLCALLLAHGADPTMKNQEGQTPLDLATADDIRALLIDAMPPEALPTCFKPQATVVSASLISPASTPSCLSAASSIDNLTGPLAELAVGGASNAGDGAAGTERKEGEVAGLDMNISQFLKSLGLEHLRDIFETEQITLDVLADMGHEELKEIGINAYGHRHKLIKGVERLLGGQQGTNPYLTFHCVNQGTILLDLAPEDKEYQSVEEEMQSTIREHRDGGNAGGIFNRYNVIRIQKVVNKKLRERFCHRQKEVSEENHNHHNERMLFHGSPFINAIIHKGFDERHAYIGGMFGAGIYFAENSSKSNQYVYGIGGGTGCPTHKDRSCYICHRQMLFCRVTLGKSFLQFSTMKMAHAPPGHHSVIGRPSVNGLAYAEYVIYRGEQAYPEYLITYQIMKPEAPSQTATAAEQKT
# B3: human TRF1 (telomeric repeat binding factor 1), expressed from pcDNA3-hTRF1 in HeLaI cells (other, UniProt P54274 1-439, looked up)
# chain: MAEDVSSAAPSPRGCADGRDADPTEEQMAETERNDEEQFECQELLECQVQVGAPEEEEEEEEDAGLVAEAEAVAAGWMLDFLCLSLCRAFRDGRSEDFRRTRNSAEAIIHGLSSLTACQLRTIYICQFLTRIAAGKTLDAQFENDERITPLESALMIWGSIEKEHDKLHEEIQNLIKIQAIAVCMENGNFKEAEEVFERIFGDPNSHMPFKSKLLMIISQKDTFHSFFQHFSYNHMMEKIKSYVNYVLSEKSSTFLMKAAAKVVESKRTRTITSQDKPSGNDVEMETEANLDTRKSVSDKQSAVTESSEGTVSLLRSHKNLFLSKLQHGTQQQDLNKKERRVGTPQSTKKKKESRRATESRIPVSKSQPVTPEKHRARKRQAWLWEEDKNLRSGVRKYGEGNWSKILLHYKFNNRTSVMLKDRWRTMKKLKLISSDSED
# Tests used:
# [1] = molecular target: amino-terminal acidic domain of TRF1 fused to LexA (LexAd68-C) (human) (UniProt P54274); test: cell-based or functional assay
# [2] = molecular target: T1, GAD-tankyrase hybrid containing 10 …; test: yeast two-hybrid, β-galactosidase; LexA without TRF1 sequences
# Experimental: TR1L-4 and TR1L-12 were isolated from a human liver two-hybrid cDNA library (Clontech) created in pGad10. The library was screened with human full length TRF1 cDNA fused to LexA (LexA-TRF1) [Bianchi et al., EMBO J., 16:1785-1794 (1997)] in the yeast strain L40 as described [Hollenberg et al., Mol. Cell Biol., 15:3813-3822 (1995)]. Two-hybrid analysis was performed as described by Bianchi et al. [EMBO J., 16:1785-1794 (1997)]. β-galactosidase assays for the two-hybrid analysis was performed as described by Bianchi et al. [EMBO J., 16:1785-1794 (1997)].
# Two-hybrid analysis was used to determine the interacting domains between tankyrase and TRF1. […] To determine the tankyrase-interacting domain in TRF1, two-hybrid analysis was performed with the 10-ANK repeat domain of TR1L-12 fused to the GAL4 activation domain (GAD-tankyrase) and full-length and deletion constructs of TRF1 fused to LexA. […] As observed previously, the amino-terminal acidic domain of TFR1 (LexAd68-C) activated transcription even in the absence of tankyrase sequences in the GAD fusion partner. […] Deletion of the acidic domain of TRF1 (ΔN66-LexA) abolished the interaction with GAD-tankyrase.
# [3] = molecular target: T2, TRF2 (telomeric repeat binding factor …)
# [4] = molecular target: T3, baculovirus-derived TRF1, P54274
# [5] = molecular target: T4, FLAG-tankyrase (encoding amino acids …); test: indirect immunofluorescence of co-transfected HeLaI cells (co-localization, nuclear translocation)
molecule,measurement,setting,value
GAD-tankyrase hybrid containing 10 internal ANK repeats (9-19) (TR1L-12) (from UniProt O95271 436-797),β-galactosidase levels (two-hybrid),[1],50.4 units
B1,binding result,[2],no binding
B2,ADP-ribosylation (PARP assay),[3],TRF2 is not a substrate for modification in vitro
same,ADP-ribosylation of TRF1 (PARP assay with [32P]NAD+),[4],Tankyrase also has the ability to modify TRF1
B3,binding result,[5],binds
